Laboratory results as given in the nanobody polyreactivity screen of Harvey et al. (2022).

Test: yeast display, Sf9 membrane polyspecificity reagent, FACS + sequencing; frameworks hold sequencing errors
Summary of the method: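 Polyreactivity labels are assigned by the sorting gate from which each nanobody was recovered. The gates were low and high (top ~1%), set on anti-HA fluorescence for expression and streptavidin fluorescence for reagent binding. Before sorting, galactose-induced (36–48 hours) yeast display cells were stained for 1 hour at 4 °C with 10% biotinylated, detergent-solubilized Sf9 membrane reagent.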

Row | Sequence | polyreactivity (PSR sort gate)
1 | QVQLEESVGGLVQAGGSLRLSCAASGRIFTIYAMVSYRQAPGKERELVAAISDRGTRTYYADSVKGRFTISRDNAKNTVYLQMNSLKPDDTAVYYCATDALYTYGYDYWGQGTQVTVSS | low polyreactivity
2 | QVQLVESGGGLVQAGGSLRFSCAASGFIFYYYDMGWYRQAPGKERELVATISRGGSTYYADSVKGRFTISRDNAKNTVYLQMNSLKPEDTAVYYCAAYRSFGYRNWNRFDYWGQGTQVTVSS | high polyreactivity
3 | QDQLVESGGGLVQAGGSLRLRCAASGFIFRYYAMGWYRQAPGKERELVAAIDYSGGSTNYADSVKRRFTISRDNAKNTVYLQMNSLKPEDTAVYYCNAEYTWHRGYDYWGQGTQVTVSS | low polyreactivity
4 | QVQLVESGGGLVQAGGSLRLSCAASGSIFIGNTMGWYRQAPGKERELVATIRRSGSRTYYADSVKGRFTISRDNAKNTVYLQMNSLKPEDTAVYYCAADRLRNSGYKTIYDYWGQGTQVTVSS | low polyreactivity
5 | QVQIVESGGGLVQAGGSLRVSCAPSGRTFLPYGMGWYRQAPGKEWELVASITSGGSTNYADSVKGRFTISRDNAQNTVYLQMNSLKPEDTAVYYCNKQTIPEWPWVKYSNGYDHWGHGTQVTVSS | low polyreactivity
6 | QDQLVESGGGLVQAGGSLRLSCAASGSTFGYYAMGWYRQAPGKERELVAAISWRGGTYYADSVKGRFTISRDNAKNTVYLQMNSLKPEDTAVYYCAADDYIVSRYRYGVRYGYWGQGTQVTVSS | high polyreactivity
7 | HVHLVESGGGLVQAGGSLSLICAASGFIFRYYAMGWYRQAPGTEREVVAAITRGGSTYYADSVKGRFTISRDNAKNTVYLQMNSLKPVATAVYYCAARLYTQYYYWGQGTQVTVSS | high polyreactivity
8 | QVQLVESGGGLVQAGGSLRLSCAASGSIFKTYAMGWYRQAPGKERELVAAITSSGGSTYYADSVKGRFTISRDNAKNTVYLQMNSLKPEDTAVYYCNARYWGYWGDHYDYWGQGTQVTVSS | high polyreactivity
9 | QVQLVESGGGLVQAGGSLRLSCAASGFIFRAYAMGWYRQAPGKERELVAAISWRGTSTYYADSVKGRFTISRDNAKNTVYLQMNSLKPEDTAVYYCARRRYLPFSRSQGSEDYWGQGTQVTVSS | high polyreactivity
10 | QVQLVESGGGLVQAGGSLRLSCAASGRIFAPYDMGWYRQAPGKERELVASITSGGSTNYTDSVKGRFTISRVNAKNTVYLQMNSLIPEDTAVYYCNTAKISEPIDPRQRVWGRTYDYWGQGTQVTVSS | low polyreactivity
11 | QVQLVESGGGLVQAGGSLRLSCAASGSTFGGNAMGWYRQAPGKERELVAAISSGGTTNYADSVKGRFTISRDNAKNTVDLQMNSLKPEDTAVYYCNKPHRWPQAGYGYWGQGTQVTVSS | high polyreactivity
12 | QVQLVESGGGLVQAGGSLRLSCAASGFIFFNYAMGWYRQAPGKERELVAVIDRSGGTTYYADSVKGRFTISRDNAKNTVYLQMNSLKPEDTAVYYCNADDFTYPSGWGFIYDYWGQGTQVTVSS | low polyreactivity
13 | QVQLVESGGGLVQAGGSLRLSCAASGSIFRINAMGWYRPAPGKEREFVAAIRGSGGRTYYAESVKGRFTISRDNAKNTVYLQMNSLKPEDTAVYYCAADFSYRYFQRTSWPFDYWGQGTQVTVSS | high polyreactivity
14 | QVQLVESGGGLVQAGGSLRLSCAASGSTFYYNAMGWYRQAPGKERELVAVITLNGGRTSYADSVKGRFTISRDNAKNTVYLQMNSLKPEDTAVYYCAADRYRGYGYWGQGTQVTVSS | low polyreactivity
15 | QVQLVESGGGLVQAGGSLRLSCAASGFIFVQNVMGWYRQAPGKERELVAAITWRGTSTYYADSVKGRFTISRDNAKNTVYLLMNSLKPEDTAVYDWNVDLQEDCEEYDYWGQGTQVTVSS | low polyreactivity
16 | QVQLVESGGGLVQAGGSLRLSCASSGSIINRYAMGGYRQAPGKERELVAAITQSGGRTYYADSVKGRFTISRDNAKNTVYLQMNSLKPEDTAVYYCNAVRWYLYDYWGQGTQVTVSS | high polyreactivity
17 | QVQLVESGGGLVQAGGSLRLSCAASGFTFGAYAMGSYRQAPGKERELVASINWSGGSTYYADSVKGRFTISRDYAMNTVYFQMNRLKPEDTAVYYCAARESYPGYGYDHWGQGTQVTVSS | low polyreactivity
18 | QVQLVESGGGLVQAGGSLRLSCAASGSTFYGYAMGWYRQAPGKERELVAAISSSATRTYYADSVKGRFTISRDNAKNTVYLQMNSLKPEDTAVYYCAAVSTLLYYHYYTRDYWGQGTQVTVSS | high polyreactivity
19 | QVQLVESGGGLVQAGGSLRLSCAASGFIFRFYAMGWYRQAPGKERELVASISRRAGRTYYADSVKGRFTISRDNAKNTVYLQMNSLKPEDTAVYYCAASGFGSFRYSSTYDYWGQCTQVTVSS | high polyreactivity
20 | QVQLVESGGGLVQAGGSLRLSCAASGRIFLYNDMGWYRQAPGKERELVATITWNVTSTYYADSVKGRFTISRDNAKYTVYLQLNSLKPEDTAVYYCARGDHVGSAGYDYWGQGTQVTVSS | low polyreactivity
21 | QVQLVESGGGLVQAGASLRLSCAASGSTFGGNAMGWSRQAPWKERELVAAINWTGGSTYADSVKGRFTISRDNAKNTVYLQMNRLKPEDTAVYYCAIRATWGSSTQYLQNQEYDYWGQGSQVTVSS | low polyreactivity
22 | QVQLVESGGGLVQAGGSLRLSCSASGITFPDYAMGWYRQAPVKERELVATISSSGGNTYYADSVKGRFTISRDNAKNTVYLQMNSLKPEDTAVYYCATVSYYWGYDYWGQGTQVTVSS | low polyreactivity

Row | Sequence | polyreactivity (PSR sort gate)
23 | QVQLVESGGGLVQAGGSLRLSCAASGIIFEYYDMGWYRQAPGKERELVAAIDSGGSTYYADSVKGRFTISRDNAKNTVYLQMNSLKPEDTAVYYCAAETVRYEWGESPAALFDYWGQGTQVTVSS | low polyreactivity
24 | QDQLVESGGGLVQAGGSLRLSCAASGINLSAYAMGWYRQAPGKERELVARISRSGGRTYYADSVKGRFTISRDNAKNTVYLQRNSLKQDDTAVYYCAADYTYGFGLYFGFGYWGQGTKVTVSS | high polyreactivity
25 | QVQLVESGGGLVQAGGSLRLSCAASGRIFSSYAMGWYRQEPGKERELVAVIRWSSGSTYYADSVKGRFTISRDNAKNTVYLQMNSLKPEDTAVYYCAALRRRSTKFEHDYWGQGTQVTVSS | high polyreactivity
26 | QVQLVESGGGLVQPGGSLRLSCAASGIIFDVYAMGWYRQAPGKERELVAGISSGGSTYYADSVKGRFTISRDNAKNTVYFQMNSLKPEDTAVYYCNADGGYSYESTDHYGYDYWGQGTQVTVSS | low polyreactivity
27 | QVQLVESGGVLVQAGGSLRLSCAASGFIFAKYAMGWYRQAPGKERELVAAINGRGTSTYYADSVKGRFTISRDNAKNTVYLQMNSLKPEDTAVYYCAARLRSGYHGQYDREDYWGQGTQVTVSS | high polyreactivity
28 | QDQLVESGGGLVQAGGSLRLSCAASGSTFSYYAMGWYRQATGKERELVASISTRGGSTYYADSVKGRFTISRDNAKNTVYLQMNSLKPEDTAVYYCAATIRPRGVARVDYWGQGTQVTVSS | high polyreactivity
29 | QVQLVESGGGLVQAGGSLRLSCAASGGTFGRYTMGWYRQAPGKERELVATITIGGGTNYADSVKGRFTISRDNAKNTVYLQMNSLKPEDTAVYYCARAWRWRCRYYEYGYWGQGTQVTVSS | high polyreactivity
30 | QVQLVESGGGLVQAGGSLRLSCAASGLTFIRYTRGWYRQAPGKDRELVAAINWSGDSTYYADSVKGRFTISLDNAKITVYLQMNSLKPEDTAVYYFNARRPRFRYDYWGQGTQVTVSW | high polyreactivity
31 | QVQLVESGGGLVQAGGSLRLSCAASGSIFTPNAMGWYRQAPGKERALVAAISSSSDRTYYADSVKGRFTISRDNAKNTVYLQMNSLKPEDTAVYYCAAYAQKRYYWGQGTQVTVSS | high polyreactivity
32 | QVQLVDSGGGLVQAGGSLRLSCAASGFTFGPYAMGWYRQAPGKERELGARITYRTGSTYYGDSVKGRFTISRDNAKNTVYLQINSLKPEDTAVYYCAAAYYCGQGTQVTVSS | high polyreactivity
33 | QVQLVESGGGLVQAGGSLRLSCAASGRTFVNNAMGWYRQAPGKERELVAAITRSGGRTYYADSVKGRFTISRDNAKNTVYLQMNSLKPVDTAVYYCATANVRLRHDDYWGQGTQVTVSS | high polyreactivity
34 | QVQLVESGGGLVQAGGSLRLSCAASGVIFVWYAMGWYRQAPGKERELVAAISSGGSTYYADSVKGRFTISRDNAKNTVYLQMNSLKPEDTAVYYCAADLWYYAYSYDYWGQGTQVTVSS | high polyreactivity
35 | QFQHVESGAGLVHAGGCLRLSCSASGRTFFYNAMGWYRQPPGKEREFVASITWSGSTYYADSVKGRFTISRDNAKNTVYLLMNRLKQEDTAVYYCAADRQGGLVIDSGGYDYWGQGTQVTVSS | low polyreactivity
36 | QEQLQESGSGLVQAGGSLRLSCAASGNIFHDWVMGWYRQAPGKERELVAAISPGAITYYADSVKGRFTISRDNAKNTVYLQTNSLKPEDTAVYYCAAYYIVEYLHGYWGQGTRVTVSS | low polyreactivity
37 | QVQLVESGGGLVQAGGSLRLSCAASGRIFRSYAMGWYRQAPGKERELVAAITSGGSTNYADSVKGRFTISRDNAKNTVYLQMNSLKPEDTAVYYCNADRWKSGYWRYDYWGQGTQVTVSS | low polyreactivity
38 | QVQLVESGGGLVQAGGSLRLSCAASGRTLPYYMGWYRQAPGKERELVAAITNGDSTYYADSVKGRFTISRDNAKNTVYLQMNSLKPEDTAVYYCNVVTYVKYGYWGQGTQVTVSS | high polyreactivity
39 | QVQLVESGGGLVQAGGSLRLSCAASGSIFYWYTMGWYRQAPGKERELVAAISSIDGNTYYADSVKGRFTISRDNAKNTVYLQMNSLKPEDTAVYYCAAAYYNTDYYYWGQGTQVTVSS | low polyreactivity
40 | QVQLVESAGGLLQAGGTLRLICAASGRIFTNYAMGWYRQAPGKERELVAAINWSGSRTFYADSVMGRFTISRDNAKYTVYLQLNSLKPEDTAVYSCAADALRKPKIALYDYWGQGTQVTVSS | high polyreactivity
41 | QVQLVESGGGLVQAGGSLRLSCAASGRIFNWYGMGWYRQAPGKERELVATISSSGDSTYYADSVKGRFTISRDNAKNTVYLQMNSLKPEDTAVFYCAKRARYKFGYWGQGSQVTVSS | high polyreactivity
42 | QVQLEESGGGLVQAGGSLRLSCAASGNIFWGNAMGWYRQAPGKEMELVAAITSIDSSTYYADSVKGRFTISRDNAKNTVYLQMNSLKPEDTAVYYCAADGDWYGYIWQSDDGYDSWGQGTQVTVSS | low polyreactivity
43 | QVQLVESGGGLVQAGGSLRLSCDASGSIFDHNSMGWYRQAPGKERELVAAISSNGVRTYYADSVKGRFTISRDNAKNTVYLQMNSLKTEDTAVYYCNAQRFVGLNVYGYDYWGQGTQVTVSS | high polyreactivity
